In this data set the target is FLAG-WRN K577M/E84A (UniProt Q14191 1-1432, E84A;K577M). Description: EMSA; 2 mM ATPgS, 5 mM MgCl2; affinity similar to WT; Kd is only in Supp Fig 1e, value not in material; 35 mM Tris-HCl pH 7.5, 20 mM KCl, 5 mM MgCl2, 0.1 mg/ml BSA, 2 mM DTT, 5% glycerol, 2 mM ATPgS, 2 nM DNA, 15 min at RT; 5% 1x TBE native PAGE at 4 C. Particulars: protein: recombinant; tags: N-terminal FLAG (6xHis removed with TEV); label: 5' 32P on oligo B (as described for the CF preparation); four-strand regressed fork: AB partial duplex annealed to CD partial duplex. On the technique in general: A gel shift assay detects complexes by their altered migration in electrophoresis.
FLAG-WRN K577M/E84A, sequence (Q14191 whole entry E84A/K577M): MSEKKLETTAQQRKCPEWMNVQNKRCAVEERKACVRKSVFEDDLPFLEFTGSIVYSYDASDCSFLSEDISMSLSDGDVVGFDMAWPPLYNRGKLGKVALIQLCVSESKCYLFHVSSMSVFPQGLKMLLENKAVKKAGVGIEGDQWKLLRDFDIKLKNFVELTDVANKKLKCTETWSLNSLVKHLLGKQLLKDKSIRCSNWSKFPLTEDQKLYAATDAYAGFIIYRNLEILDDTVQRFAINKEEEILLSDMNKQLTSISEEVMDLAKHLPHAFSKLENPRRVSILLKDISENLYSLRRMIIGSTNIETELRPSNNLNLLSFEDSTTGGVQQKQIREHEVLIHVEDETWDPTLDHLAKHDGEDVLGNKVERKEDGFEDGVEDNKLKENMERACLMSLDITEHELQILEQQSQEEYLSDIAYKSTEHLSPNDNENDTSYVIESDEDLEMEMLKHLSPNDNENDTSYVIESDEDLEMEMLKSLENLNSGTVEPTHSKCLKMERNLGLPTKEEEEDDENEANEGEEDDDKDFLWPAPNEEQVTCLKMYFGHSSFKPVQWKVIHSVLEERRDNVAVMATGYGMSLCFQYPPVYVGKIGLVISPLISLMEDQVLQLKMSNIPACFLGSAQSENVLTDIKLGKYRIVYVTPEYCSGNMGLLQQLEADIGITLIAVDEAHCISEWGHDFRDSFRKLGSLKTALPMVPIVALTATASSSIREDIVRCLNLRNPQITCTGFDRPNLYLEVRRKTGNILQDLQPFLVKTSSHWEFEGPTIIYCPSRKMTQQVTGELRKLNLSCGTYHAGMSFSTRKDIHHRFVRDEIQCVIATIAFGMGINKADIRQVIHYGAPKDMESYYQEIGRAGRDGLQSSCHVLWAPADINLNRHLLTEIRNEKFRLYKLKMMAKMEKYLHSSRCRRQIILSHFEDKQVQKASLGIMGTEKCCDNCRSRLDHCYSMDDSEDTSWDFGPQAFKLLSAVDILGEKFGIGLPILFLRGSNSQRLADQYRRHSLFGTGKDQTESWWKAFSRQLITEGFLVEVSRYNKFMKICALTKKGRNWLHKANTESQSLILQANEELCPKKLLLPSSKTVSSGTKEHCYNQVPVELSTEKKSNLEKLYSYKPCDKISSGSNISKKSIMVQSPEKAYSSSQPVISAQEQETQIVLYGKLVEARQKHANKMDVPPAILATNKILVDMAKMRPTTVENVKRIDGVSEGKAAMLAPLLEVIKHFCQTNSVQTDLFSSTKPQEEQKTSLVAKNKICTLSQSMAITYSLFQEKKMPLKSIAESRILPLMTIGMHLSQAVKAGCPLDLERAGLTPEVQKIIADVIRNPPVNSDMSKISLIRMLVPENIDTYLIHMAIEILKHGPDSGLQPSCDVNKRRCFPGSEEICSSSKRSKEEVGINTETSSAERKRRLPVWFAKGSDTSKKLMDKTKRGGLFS

B1: chicken-foot (CF) reversed fork substrate, oligos A+B+C+D (structured_DNA)
DNA 1: CTTTAGCTGCATATTTACAACATGTTGACCTTCAGTACAATCTGCTCTGATGCCGCATAGTGTCATGCCAGAGCTTTGTAC
DNA 2: CGGGTGTCGGGGCGCATGACACTATGCGGCATCAGAGCAGATTGTACTGAAGGTCAACATGTTGTAAATATGCAGCTAAAG
DNA 3: GTACAAAGCTCTGGCATGATACTATGCGGCATCAGAGCAGATT
DNA 4: TCAGTACAATCTGCTCTGATGCCGCATAGTATCATGCGCCCCGACACCCG
modifications: iMe-isodC at position 38 of oligo A (written as C)
Regarding B1, the binding result is “binds”.

For the origin of these results see PMC8590011, “WRN helicase safeguards deprotected replication forks in BRCA2-mutated cancer cells”.
